{
  "source": "patent US20180230200A1",
  "about": "(CITY OF HOPE, published 2018)",
  "binders": {"B1": {"name": "21E9 (antibody, V domains shown)", "VH": "QIQLVQSGPELKKPGETVKISCKASGYTFTIYGMNWVKQAPGKGLKWMGWINTYTGEPTYADDFRGRFAFSLETSASTAYLQINNLKNEDTATYFCARKGYYGSSGYFDYWGQGTTLTVSS", "VL": "SIVMTQTPKFLLVSAGDRVTITCKASQSVSNDVSWYQQKPGQSPKLLIYYASNRYTGVPDRFTGSGYGTDFTFTISTVQAEDLAVYFCQQDYSSPWTFGGGTKLEIK", "notes": "also called NAb 21E9"}, "B2": {"name": "2-80 (antibody, V domains shown)", "VH": "QIQLVQSGPELKKPGETVKISCKASGYTFTNFGMNWVKQAPGKGLKWMGWINTYTGEPTYADDFKGRFAFSLETSASTASLQINNLKNEDTATYFCARRGDGLYSMDYWGQGTSVTVSS", "VL": "DIVLTQSPASLAVSLGQRATISCRASESIDSYGNSFMYWYQQKPGQPPKLLIYRASNLESGIPARFSGSGSRTDFTLTINPVEADDVATYYCQQSNEDPLTFGAGTKLELK", "notes": "also called NAb 2-80"}, "B3": {"name": "62-11 (antibody, V domains shown)", "VH": "QVQLQQPGAELVRPGASVKLSCKASGYTFTSYWMNWVKQRPGQGLEWIGMIDPSDSETHYNQMFKDKATLTVDKSSSTAYMQLSSLTSEDSAVYYCSNGYSSFAYWGQGTLVTVSV", "VL": "DVQMTQTTSSLSASLGDRVTISCSASQGISNYLNWYQQKPDGTVKLLIYDTSSLHSGVPSRFSGSGSGTDYSLTISNLEPEDIATYYCQQYSKLPYTFGGGTKLEIK", "notes": "also called NAb 62-11"}, "B4": {"name": "62-100 (antibody, V domains shown)", "VH": "B3 VH", "VL": "DIVLTQSPATLSVTPGDSVSLSCRASQSISNNLHWYQQKSHESPRLLIKYASQSISGIPSRFSGSGSGTDFTLSINSVETEDFGKYVCQQSNSWPLTFGSGTKLEIK", "notes": "also called NAb 62-100"}},
  "data": [
    {"molecular_target": "gH of HCMV strain TR (human cytomegalovirus strain TR)", "assay": "cell-based or functional assay", "units": {"IC50, inhibition of TR cell-to-cell spread in ARPE-19": "µg/mL", "IC50, neutralization of TR infection of ARPE-19": "ng/mL", "IC50, neutralization of TR infection of HUVEC": "ng/mL", "IC50, neutralization of TR infection of MRC-5": "ng/mL"}, "values": [
      {"binder": "B1", "IC50, inhibition of TR cell-to-cell spread in ARPE-19": 262, "IC50, neutralization of TR infection of ARPE-19": 926, "IC50, neutralization of TR infection of HUVEC": 2920, "IC50, neutralization of TR infection of MRC-5": 4140},
      {"binder": "B2", "IC50, inhibition of TR cell-to-cell spread in ARPE-19": 398, "IC50, neutralization of TR infection of ARPE-19": 2120, "IC50, neutralization of TR infection of HUVEC": 2540, "IC50, neutralization of TR infection of MRC-5": 1720},
      {"binder": "B3", "IC50, inhibition of TR cell-to-cell spread in ARPE-19": 395, "IC50, neutralization of TR infection of ARPE-19": 641, "IC50, neutralization of TR infection of HUVEC": 830, "IC50, neutralization of TR infection of MRC-5": 3350},
      {"binder": "B4", "IC50, inhibition of TR cell-to-cell spread in ARPE-19": 337, "IC50, neutralization of TR infection of ARPE-19": 2130, "IC50, neutralization of TR infection of HUVEC": 1030, "IC50, neutralization of TR infection of MRC-5": 1980}
    ]},
    {"molecular_target": "gH of HCMV strain TB40/E (human cytomegalovirus strain TB40/E)", "assay": "cell-based or functional assay", "units": {"IC50, inhibition of TB40/E cell-to-cell spread in ARPE-19": "µg/mL", "IC50, neutralization of TB40/E infection of ARPE-19": "ng/mL", "IC50, neutralization of TB40/E infection of CTB": "ng/mL", "IC50, neutralization of TB40/E infection of HUVEC": "ng/mL", "IC50, neutralization of TB40/E infection of MRC-5": "ng/mL"}, "values": [
      {"binder": "B1", "IC50, inhibition of TB40/E cell-to-cell spread in ARPE-19": 157, "IC50, neutralization of TB40/E infection of ARPE-19": 1410, "IC50, neutralization of TB40/E infection of CTB": 42400, "IC50, neutralization of TB40/E infection of HUVEC": 2370, "IC50, neutralization of TB40/E infection of MRC-5": 5780},
      {"binder": "B2", "IC50, inhibition of TB40/E cell-to-cell spread in ARPE-19": "> 400", "IC50, neutralization of TB40/E infection of ARPE-19": 1430, "IC50, neutralization of TB40/E infection of CTB": "> 50000", "IC50, neutralization of TB40/E infection of HUVEC": 1400, "IC50, neutralization of TB40/E infection of MRC-5": 1600},
      {"binder": "B3", "IC50, inhibition of TB40/E cell-to-cell spread in ARPE-19": 87, "IC50, neutralization of TB40/E infection of ARPE-19": 185, "IC50, neutralization of TB40/E infection of CTB": 2760, "IC50, neutralization of TB40/E infection of HUVEC": 102, "IC50, neutralization of TB40/E infection of MRC-5": 182},
      {"binder": "B4", "IC50, inhibition of TB40/E cell-to-cell spread in ARPE-19": 103, "IC50, neutralization of TB40/E infection of ARPE-19": 270, "IC50, neutralization of TB40/E infection of CTB": 3620, "IC50, neutralization of TB40/E infection of HUVEC": 156, "IC50, neutralization of TB40/E infection of MRC-5": 293}
    ]},
    {"molecular_target": "T1, UL128 expressed from MVA in BHK-21 cells (human cytomegalovirus, UniProt P16837 28-171)", "T1 construct": "whole, on cells", "T1 sequence": "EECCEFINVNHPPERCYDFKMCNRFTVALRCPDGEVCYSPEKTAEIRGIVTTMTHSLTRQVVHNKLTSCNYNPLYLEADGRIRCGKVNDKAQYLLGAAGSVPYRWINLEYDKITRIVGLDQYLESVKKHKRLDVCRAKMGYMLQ", "assay": "intracellular FC, MVA-infected BHK-21", "experimental": "(§1) NAb subunit specificity was evaluated by staining BHK-21 cells infected with different MVA recombinants. One or more vectors were used to co-infect BHK-21 at an MOI of 5. […] Four hours post infection cells were fixed and permeabilized using Cytofix/Cytoperm solution (BD Biosciences). NAbs (1 mg/ml) were diluted 1:500 in perm/wash buffer (BD) and added to the cells for 1 hour at 4° C. […] Cells were washed again and resuspended in PBS/0.1% BSA. Fifteen thousand events were collected using the Gallios Flow Cytometer (Beckman Coulter, Miami, Fla., USA) and analyzed with FlowJo Software (Tree Star, Ashland, Oreg., USA). Uninfected cells and cells infected with MVA-Venus were used as controls. GFP expression was analyzed for confirming MVA infection since all the constructs contain a GFP expression cassette (36, 62).\n(§2) In order to determine the antigen specificity of the vaccine-derived NAbs, intracellular flow cytometry (FC) staining of permeabilized BHK-21 cells infected with MVA expressing single subunits or combinations of two or more subunits of the PC was evaluated.", "values": [
      {"binder": "B1", "binding result": "no binding"},
      {"binder": "B2", "binding result": "no binding"},
      {"binder": "B3", "binding result": "no binding"},
      {"binder": "B4", "binding result": "no binding"}
    ]},
    {"molecular_target": "T2, UL130 expressed from MVA in BHK-21 cells (human cytomegalovirus, UniProt P16772 1-214)", "T2 construct": "whole, on cells", "assay": "intracellular FC, MVA-infected BHK-21", "experimental": "as §1, §2", "values": [
      {"binder": "B1", "binding result": "no binding"},
      {"binder": "B2", "binding result": "no binding"},
      {"binder": "B3", "binding result": "no binding"},
      {"binder": "B4", "binding result": "no binding"}
    ]},
    {"molecular_target": "T3, UL131A expressed from MVA in BHK-21 cells (human cytomegalovirus, UniProt F5HET4 19-129)", "T3 construct": "whole, on cells", "assay": "intracellular FC, MVA-infected BHK-21", "experimental": "as §1, §2", "values": [
      {"binder": "B1", "binding result": "no binding"},
      {"binder": "B2", "binding result": "no binding"},
      {"binder": "B3", "binding result": "no binding"},
      {"binder": "B4", "binding result": "no binding"}
    ]},
    {"molecular_target": "T4, UL128/UL130 co-expressed from MVA in BHK-21 cells (human cytomegalovirus, UniProt P16837 28-171; P16772 1-214)", "T4 construct": "whole, on cells", "assay": "intracellular FC, MVA-infected BHK-21", "experimental": "as §1, §2", "values": [
      {"binder": "B1", "binding result": "no binding"},
      {"binder": "B2", "binding result": "no binding"},
      {"binder": "B3", "binding result": "no binding"},
      {"binder": "B4", "binding result": "no binding"}
    ]},
    {"molecular_target": "T5, UL128/UL131A co-expressed from MVA in BHK-21 cells (human cytomegalovirus, UniProt P16837 28-171; F5HET4 19-129)", "T5 construct": "whole, on cells", "assay": "intracellular FC, MVA-infected BHK-21", "experimental": "as §1, §2", "values": [
      {"binder": "B1", "binding result": "no binding"},
      {"binder": "B2", "binding result": "no binding"},
      {"binder": "B3", "binding result": "no binding"},
      {"binder": "B4", "binding result": "no binding"}
    ]},
    {"molecular_target": "T6, UL130/UL131A co-expressed from MVA in BHK-21 cells (human cytomegalovirus, UniProt P16772 1-214; F5HET4 19-129)", "T6 construct": "whole, on cells", "assay": "intracellular FC, MVA-infected BHK-21", "experimental": "as §1, §2", "values": [
      {"binder": "B1", "binding result": "no binding"},
      {"binder": "B2", "binding result": "no binding"},
      {"binder": "B3", "binding result": "no binding"},
      {"binder": "B4", "binding result": "no binding"}
    ]},
    {"molecular_target": "T7, UL128/UL130/UL131A co-expressed from MVA in BHK-21 cells (human cytomegalovirus, UniProt P16837 28-171; P16772 1-214; F5HET4 19-129)", "T7 construct": "whole, on cells", "assay": "intracellular FC, MVA-infected BHK-21", "experimental": "as §1, §2", "values": [
      {"binder": "B1", "binding result": "no binding"},
      {"binder": "B2", "binding result": "no binding"},
      {"binder": "B3", "binding result": "no binding"},
      {"binder": "B4", "binding result": "no binding"}
    ]},
    {"molecular_target": "T8, gH/gL/UL128/UL130/UL131A pentamer complex expressed from MVA-PC in BHK-21 cells (human cytomegalovirus, UniProt P12824 24-743; P16832 31-278; P16837 28-171; P16772 1-214; F5HET4 19-129)", "T8 construct": "whole, on cells", "assay": "FC, biotinylated NAb titrated on MVA-PC-infected BHK-21 (cell surface PC)", "units": {"EC50": "nM"}, "values": [
      {"binder": "B1", "EC50": 18},
      {"binder": "B2", "EC50": 2.8},
      {"binder": "B3", "EC50": 1.7},
      {"binder": "B4", "EC50": 3.3}
    ]},
    {"molecular_target": "T8, gH/gL/UL128/UL130/UL131A pentamer …", "assay": "FC competition, MVA-PC BHK-21; unlabelled row Ab; competitor: biotinylated 2-80; also: test concentration or dose not given here", "units": {"Binding Inhibition (%)": "%"}, "values": [
      {"binder": "B1", "Binding Inhibition (%)": 100},
      {"binder": "B2", "Binding Inhibition (%)": 100},
      {"binder": "B3", "Binding Inhibition (%)": 54},
      {"binder": "B4", "Binding Inhibition (%)": 57}
    ]},
    {"molecular_target": "T8, gH/gL/UL128/UL130/UL131A pentamer …", "assay": "FC competition, MVA-PC BHK-21; unlabelled row Ab; competitor: biotinylated 21E9; also: test concentration or dose not given here", "units": {"Binding Inhibition (%)": "%"}, "values": [
      {"binder": "B1", "Binding Inhibition (%)": 100},
      {"binder": "B2", "Binding Inhibition (%)": 100},
      {"binder": "B3", "Binding Inhibition (%)": 46},
      {"binder": "B4", "Binding Inhibition (%)": 51}
    ]},
    {"molecular_target": "T8, gH/gL/UL128/UL130/UL131A pentamer …", "assay": "FC competition, MVA-PC BHK-21; unlabelled row Ab; competitor: biotinylated AP86; also: test concentration or dose not given here", "units": {"Binding Inhibition (%)": "%"}, "values": [
      {"binder": "B1", "Binding Inhibition (%)": 0},
      {"binder": "B2", "Binding Inhibition (%)": 0},
      {"binder": "B3", "Binding Inhibition (%)": 0},
      {"binder": "B4", "Binding Inhibition (%)": 0}
    ]},
    {"molecular_target": "T8, gH/gL/UL128/UL130/UL131A pentamer …", "assay": "FC competition, MVA-PC BHK-21; unlabelled row Ab; competitor: biotinylated 18F10", "units": {"Binding Inhibition (%)": "%"}, "values": [
      {"binder": "B1", "Binding Inhibition (%)": 0},
      {"binder": "B2", "Binding Inhibition (%)": 0},
      {"binder": "B3", "Binding Inhibition (%)": 0},
      {"binder": "B4", "Binding Inhibition (%)": 0}
    ]},
    {"molecular_target": "T8, gH/gL/UL128/UL130/UL131A pentamer …", "assay": "FC competition, MVA-PC BHK-21; unlabelled row Ab; competitor: biotinylated 62-11; also: test concentration or dose not given here", "units": {"Binding Inhibition (%)": "%"}, "values": [
      {"binder": "B1", "Binding Inhibition (%)": 32},
      {"binder": "B2", "Binding Inhibition (%)": 43},
      {"binder": "B3", "Binding Inhibition (%)": 100},
      {"binder": "B4", "Binding Inhibition (%)": 100}
    ]}
  ]
}
